Tests used:
[1] = target: HLA-DR2 (DRB1*1501) on antigen presenting cells (MGAR, L466) (human); experiment: cell-based or functional assay
[2] = target: T1, soluble recombinant HLA-DR2 molecules (MHC class II HLA-DR2 protein) (human); experiment: competition ELISA on soluble HLA-DR2; competitor biotinylated Cop 1 (1.5 µM)
T1 construct: Soluble, empty protein from Drosophila S2 cells, captured on plates by antibody LB3.1; also called MHC class II DR2 protein; recombinant HLA-DR2 protein

Binder	Inhibition of IL-2 production (%), Hy1B [1]	IC50 [2]
AKAAAAEYAAAAAAA [synthetic peptide #51]	3%	> 1 mM
AAAEYKAYAAAAAAA [synthetic peptide #70]	24%	> 1 mM
AEAEYKAYAAAAAAA [synthetic peptide #66]	43%	> 1 mM
AAEKYAAYAAAAAAA [synthetic peptide #55]	30%	> 1 mM
EAKAYAAYKAAAAAA [synthetic peptide #86]	29%	> 1 mM
EAKEYAAYAAAAAAA [synthetic peptide #74]	22%	> 1 mM
EEAKYAAYKAAAAAA [synthetic peptide #91]	54%	> 1 mM
AKEKYAAYAAAAAAA [synthetic peptide #63]	29%	> 1 mM
AAAKVAAAAAAAAAA [synthetic peptide #116]	30%	> 1 mM
EAAEYAAYKAAAAAA [synthetic peptide #89]	41%	> 1 mM
EKKAYAAAAAAAAAA [synthetic peptide #41]	7%	> 1 mM
EKAAYAAAAAAAAAA [synthetic peptide #44]	0%	> 1 mM
EKAEYAAYAAAAAAA [synthetic peptide #72]	39%	> 1 mM
AAKEYAAYKAAAAAA [synthetic peptide #84]	42%	> 1 mM
AKAEYAAYKAAAAAA [synthetic peptide #81]	28%	> 1 mM
AAEKYAAYKAAAAAA [synthetic peptide #77]	61%	> 1 mM
EAAKYAAYKAAAAAA [synthetic peptide #85]	25%	> 1 mM
AKAEAAAYAAAAAAA [synthetic peptide #48]	27%	> 1 mM

Binder	Inhibition of IL-2 production (%), Hy1B [1]	IC50 [2]
AKEAYAAYAAAAAAA [synthetic peptide #57]	0%	> 1 mM
EAEKYAAYAAAAAAA [synthetic peptide #71]	25%	> 1 mM
AAEKVAAAAAAAAAA [synthetic peptide #114]	34%	> 1 mM
AEAKYEAYAAAAAAA [synthetic peptide #67]	41%	> 1 mM
AAEKAAAAAAAAAAA [synthetic peptide #119]	26%	> 1 mM
EAEAYAAYKAAAAAA [synthetic peptide #88]	55%	> 1 mM
EEAAYAAYKAAAAAA [synthetic peptide #90]	22%	> 1 mM
KEKAAAAYAAAAAAA [synthetic peptide #47]	13%	> 1 mM
AAAEYAAYKAAAAAA [synthetic peptide #76]	52%	> 1 mM
AKEAYAAAAAAAAAA [synthetic peptide #39]	32%	> 1 mM
AKEEYAAYKAAAAAA [synthetic peptide #82]	47%	> 1 mM
EKEAAAAYAAAAAAA [synthetic peptide #46]	0%	> 1 mM
AAKKYEAYAAAAAAA [synthetic peptide #68]	41%	> 1 mM
EEKAYAAAAAAAAAA [synthetic peptide #105]	36%	> 1 mM
AEKAAAAYAAAAAAA [synthetic peptide #49]	36%	> 1 mM
EKAAYAAYKAAAAAA [synthetic peptide #87]	40%	> 1 mM
AKKEYAAAAAAAAAA [synthetic peptide #37]	5%	> 1 mM

Next, values leading:

Inhibition of IL-2 production (%), Hy1B [1]	IC50 [2]	Binder
35%	> 1 mM	AAEEYKAYAAAAAAA [synthetic peptide #61]
0%	> 1 mM	AEAKYAAYAAAAAAA [synthetic peptide #60]
30%	> 1 mM	AEEAYAAYKAAAAAA [synthetic peptide #80]
38%	> 1 mM	AAEAVAAAAAAAAAA [synthetic peptide #118]
25%	> 1 mM	AAEAYAAAAAAAAAA [synthetic peptide #117]
25%	> 1 mM	AAAKYAAAAAAAAAA [synthetic peptide #115]
38%	> 1 mM	AEKKYAAYAAAAAAA [synthetic peptide #54]
42%	> 1 mM	EKEAYAAYKAAAAAA [synthetic peptide #92]
22%	> 1 mM	AKEEYAAYAAAAAAA [synthetic peptide #62]
43%	> 1 mM	AEEKYAAYKAAAAAA [synthetic peptide #83]
50%	> 1 mM	AEAKYAAYKAAAAAA [synthetic peptide #79]
22%	> 1 mM	AAKAYEAYAAAAAAA [synthetic peptide #65]
22%	> 1 mM	AEKEYAAAAAAAAAA [synthetic peptide #40]
16%	> 1 mM	AAKEYAAYAAAAAAA [synthetic peptide #58]
59%	> 1 mM	AKEAYAAYKAAAAAA [synthetic peptide #78]
19%	> 1 mM	EAKAYAAYAAAAAAA [synthetic peptide #75]
17%	> 1 mM	AKEEYAAAAAAAAAA [synthetic peptide #38]
45%	> 1 mM	AAEKYEAYAAAAAAA [synthetic peptide #69]
16%	> 1 mM	AEEKYAAYAAAAAAA [synthetic peptide #56]
23%	> 1 mM	EKEAYAAYAAAAAAA [synthetic peptide #73]
29%	> 1 mM	AKAEYAAYAAAAAAA [synthetic peptide #59]

Reference: US20060020109A1 (Harvard, published 2006)
